{"source": "the DeepSol protein solubility set"}
{"assay": "soluble on expression in E. coli; label from the status in PepcDB or PDB records"}
{"sequence": "MGSDKIHHHHHHSDLTSAQVAERLLVSQPKISLLENGHRAISPRDVRDLCELYGVTDRQVIDSLMRMARESGQQGWWNTYGNIPNSVYIGLETDASSIHTYEPMVIPDLLQTPAYAHAVIETTVPPIPAQQADARLKVRLRRQHRIYDPARPLRLWVVLDEPALHRVVGRPDIMREQLEHLNALSAEPHITVQVLPYTAGAHPGRQGQFSVLRFADSPEAGMVYLERFTSDLYLKKPSEVQQYSMMYDHLQARALSPEGTRDFVTDVTKSHIDVASRP", "soluble on expression in E. coli": "not soluble"}
{"sequence": "MKPKVVRYLDEGEFPLAEEEALRLYRAMRRARFFDEKALTLQRQGRLGVYAPFMGQEAAQVGVALALEERDWVVPSYRESAMLLAKGLPIHTLILYWRAHPAGWRFPEGVRAVNPYIPIATQIPQAVGLALAGRYRGEDWVVATSIGDGGTSEGDFHEGLNFAAVFGAPVVFLVQNNGYAISVPKSRQMKVDYVARRAEGYGMPGVVVDGNDAFAVYLEAKKAVERARKGEGPTLLEALTYRLAPHTTSDDPSRYRSKEEEEAWRAKDPILRLRKALEGRGLWGEEAEKALLLELEEEFQRELALADEAPEPRPEEIVEHVYAEMGPDQRRAWEALRRGLHVEEVE", "soluble on expression in E. coli": "soluble"}
{"sequence": "MSLKLIATDMDGTLLRSNGEFPNEFPLILDSLLNKNIMFSVASGRQYFTLKDNMAGFEDKITFIAENGAFIVKDGKELFAKTLDRDMLSKVVDDAKKVPDCKLVLCGKKSAYVLDKSSAFIEEVEKYYHKSAVVNSLDEIDDEFFKIAICDYKGSANNSNVLLSPKWGKLFQLTVSGDIWLDIGRNDVNKGTAIKFLQDKFNINENETMAFGDYYNDVSMLQSVYHSYVMENAPDGVKKHGRFIAKSNDESGVIQVIKNKVLELGAEGHHHHHH", "soluble on expression in E. coli": "soluble"}
{"sequence": "MSLEKHNEHKTLNHKSSKEKDQITNRLKRIEGQVRGIQNMVENDRYCVDILVQISAVQAAMKNVALHLLEDHAHHCVADAIKSGDGEQAISELLDVFKKFTKSEGHHHHHH", "soluble on expression in E. coli": "soluble"}
{"sequence": "MIFVLDVGNTNTVLGVYDGDELKHHWRIETSRSKTEDEYGMMIKALLNHVGLQFSDIRGIIISSVVPPIMFALERMCLKYFHIKPLIVGPGIKTGLDIKYDNPREVGADRIVNAVAGIHLYGSPLIIVDFGTATTYCYINEHKQYMGGAIAPGIMISTEALFARAAKLPRIEIARPDDIIGKNTVSAMQAGILYGYVGQVEGIVSRMKAKSKIPPKVIATGGLAPLIASESDIIDVVDPFLTLTGLKLLYEKNTEKKG", "soluble on expression in E. coli": "soluble"}
{"sequence": "MGSDKIHHHHHHMRLRHIEIFHAIYTTGSITNAAKILHVSQPSVSKVLSHAEMQLGFDLFERVKGRLTPTDEAEMLFDEVDKIYQQMRSIKNTAENIKKSEYGQINIAGSPALGFDVIPSAIAKYHHKHHQVNFNVQTVHNDAVMQTLLEHKCDLAILFAPNVMPGVTSIELAQSELVIVYPKVSFPDCPKELTLNQLKEFEYIDIGDSGPLADLLWTRMMKDNISLEALIKVQTYFIAARLVAQGVGICVVDRFTAEGNLSDNTAIASFNPPLTFPVKALYLENKSLSKVSQEFLSYLTTEFSDDSK", "soluble on expression in E. coli": "not soluble"}
{"sequence": "MKTVPPVHRIALLFNGSKIYDRGIISGIGNYLSSTRVSWDLFLEEDFLCRLKGIERWQGDGIIADFDDPLIGEALAGIRLPVVAVGGSYQDERAYPKGIPYVATDNHALIKAAYEHLIEAGLTRFACFSLPEAQANRWAQEREKAFRHLLQRDGLHAEVYRGLGTSAPLWDSAVEQQITWLQSLPKPIGIIAVTDARARQLLQACLTAGIAVPEQVALIGIDNDPLTRTLTRVPLSSVIQGTETMGRTAARLLHQLLHGMPSSGTHILIPPDAVNVQASSLHQPLGDPYVMQALLFIRQYACQGIKTAQVAAYVGVSRSALESHFRRVRGCSVHDEILRFKLAAAAHGLENTDSAIADIARDCGFRSAQYLHTVFRREFGCTPREYLQGANAALQ", "soluble on expression in E. coli": "not soluble"}
{"sequence": "MATNAKPVYKRILLKLSGEALQGTEGFGIDASILDRMAQEIKELVELGIQVGVVIGGGNLFRGAGLAKAGMNRVVGDHMGMLATVMNGLAMRDALHRAYVNARLMSAIPLNGVCDNYSWAEAISLLRNNRVVILSAGTGNPFFTTDSAACLRGIEIEADVVLKATKVDGVFTADPAKDPSATMYDQLTYSEVLDKELKVMDLAAFTLARDHKLPIRVFNMNKPGALRRVVMGEKEGTLITELEHHHHHH", "soluble on expression in E. coli": "not soluble"}
{"sequence": "APARPAHPLDPLSTAEIKAATNTVKSYFAGKKISFNTVTLREPARKAYIQWKEQGGPLPPRLAYYVILEAGKPGVKEGLVDLASLSVIETRALETVQPILTVEDLCSTEEVIRNDPAVIEQCVLSGIPANEMHKVYCDPWTIGYDERWGTGKRLQQALVYYRSDEDDSQYSHPLDFCPIVDTEEKKVIFIDIPNRRRKVSKHKHANFYPKHMIEKVGAMRPEAPPINVTQPEGVSFKMTGNVMEWSNFKFHIGFNYREGIVLSDVSYNDHGNVRPIFHRISLSEMIVPYGSPEFPHQRKHALDIGEYGAGYMTNPLSLGCDCKGVIHYLDAHFSDRAGDPITVKNAVCIHEEDDGLLFKHSDFRDNFATSLVTRATKLVVSQIFTAANYEYCLYWVFMQDGAIRLDIRLTGILNTYILGDDEEAGPWGTRVYPNVNAHNHQHLFSLRIDPRIDGDGNSAAACDAKSSPYPLGSPENMYGNAFYSEKTTFKTVKDSLTNYESATGRSWDIFNPNKVNPYSGKPPSYKLVSTQCPPLLAKEGSLVAKRAPWASHSVNVVPYKDNRLYPSGDHVPQWSGDGVRGMREWIGDGSENIDNTDILFFHTFGITHFPAPEDFPLMPAEPITLMLRPRHFFTENPGLDIQPSYAMTTSEAKRAV", "soluble on expression in E. coli": "soluble"}
{"sequence": "RMMEGAIAIADLTVGDVMVPRSQMVSLPVESDLQTITKQMVESGHSRFPVHGENKDEVLGILLAKDLLRGVSANHTITNVHELLRPVGMIPESKKLNVLLKEFRLSHNHMAIVVDEYGGVAGLVTIEDILEQIVGDID", "soluble on expression in E. coli": "soluble"}
{"sequence": "MGSDKIHHHHHHMKVWPVKHSPLLRQPERFIARSELQALIRNVTQNLVNIKDESGQFLLRLDDGRVIDTKGWAGWEWTHGVGLYGIYQYYQQTGDIEMRDIIDRWFADRFAEGATTKNVNTMAPFLTLAYRFEETGRMAYLPWLESWAEWAMHEMPRTEQGGMQHMTLAEENHQQMWDDTLMMTVLPLAKIGKLLNRPQYVEEATYQFLLHVQNLMDRETGLWFHGWNYEGRHNFARARWARGNSWLTMVIPDFLELVDLPEGNAVRRYLITVLDAQIAALAECQDDSGLWHTLLDDPHSYLEASATAGFAYGILKAVRKRYVGQHYAGVAEKAIRGIVQNISPQGELLQTSFGTGMGSDLDFYRQIPLTSMPYGQAMAILCLTEYLRKYF", "soluble on expression in E. coli": "not soluble"}
{"sequence": "MPGAVDFKERISRQRPHDRETYGHAGNTDLQDIVYQLESDRGRIVNSAAVRRLQQKTQVFPLERNAAVRSRLTHSLEVQQTGRFIVRTLFRQLGPRAAEVGLDGLEGALESLVEMACLMHDVGNPPFGHFGEYAINDWFERNLDALFERRIPPGQGDGLLQQRMLTDLKHFEGNAQAIRLVVKLLRLNLTYTQTAGLLKYVRPAYEPKPDKAAANHYLNKKPGFYLSEEAFVDELRRVLGMRPGTRHPVAYIMEAADDISYCLADIEDSVEKGILDIRQLADLLVKKFAVHHSPDAPIPGDADNMSFQRMVDYSLEKAEREPINKVSEFFIRLRVKMIHPLVQHAAQQFIDNFEAVHAGTLGRALMEDGSLPHAIVQTFKDVAMEWVFCHPEVETLELQGYRIIQGLLDFYAPLLRLPAEEFQALAEGRQAAAPHPQLLVRRLPSQQIKAYLEAMKGVAEDPLQRQWEFYHRCRMLQDFVSGMTDQHAQDEYRALSAL", "soluble on expression in E. coli": "not soluble"}
{"sequence": "SISQQTVWNQMATVRTPLNFDSSKQSFCQFSVDLLGGGISVDKTGDWITLVQNSPISNLLRVAAWKKGCLMVKVVMSGNAAVKRSDWASLVQVFLTNSNSTEHFDACRWTKSEPHSWELIFPIEVCGPNNGFEMWSSEWANQTSWHLSFLVDNPKQSTTFDVLLGISQNFEIAGNTLMPAFSVPQANARSSENAESSA", "soluble on expression in E. coli": "soluble"}
{"sequence": "MERILLVLDDTGRGEIAFQKLKKLAEDGLRGEVYILYIREMEVPPFVPEEKELAAYHRLMTQSMKKLEGFKNQLEKAGLKVSDVSVVFGKYADRLLLVEKQIKPDLIVVGFKGGLLKRVIGGFFGKDPCEVLLKKSKASLLICRG", "soluble on expression in E. coli": "not soluble"}
